# According to the RNAGym collection of RNA variant scans (doi:10.7554/elife.90254):
# B1: LINE1-full (parent)
# chain: UACGUAGGUGGUUUUCCCCUGAUAGUGCUAAGGGGGCCUGGAAGUUUGGACUGGGCAGAGCUCAACACAGCGUGGCAAAGUGGCUGUGGCUAGACUGCCUCUCUGGAUUCCUCGUCACUCAGCAGGGCAUCUCUGAGAGAAAUGCC
# Variants of: B1
# Test: self-cleavage, relative activity (ratio to wild type); higher = more cleavage; in vitro, sequencing; the parent is a self-cleaving ribozyme
row,Variant,self-cleavage
1,G8C A22G,0
2,G8C A141U,1.33
3,G8C U45C,2.04
4,G8C U81C,1.08
5,G8U,1.39
6,G8U A42U,1.17
7,G8U A59G,0.12
8,G8U A129G,0.32
9,G8U A136G,0.46
10,G8U C128U,1.14
11,G8U C145U,2.38
12,G8U G35A,1.41
13,G8U U9A,2.01
14,G8U U14C,2.04
15,G8U U29C,1.99
16,G8U U39A,1.12
17,G8U U81A,2.37
18,G8U U109C,0.67
19,G8U U115C,1.93
20,G8U U119A,1.51
21,U9A,1.05
22,U9A A22G,1.53
23,U9A A24G,0.93
24,U9A A43G,1.1

row,Variant,self-cleavage
1,U9A A43U,0.61
2,U9A A50G,1.03
3,U9A A50U,0.45
4,U9A A59G,0.18
5,U9A A64G,0.26
6,U9A A65G,0.21
7,U9A A67U,0.25
8,U9A A69U,0.06
9,U9A A77G,1.61
10,U9A A79G,1.01
11,U9A A79U,1.59
12,U9A A92G,0.15
13,U9A A94U,0.39
14,U9A A107G,1.02
15,U9A A121G,1.56
16,U9A A121U,2.38
17,U9A A124C,1.74
18,U9A A124G,1.02
19,U9A A129C,1.22
20,U9A A129G,1.24
21,U9A A136U,0.81
22,U9A A138U,1.01
23,U9A A140U,1.08
24,U9A C19U,0.71

row,Variant,self-cleavage
1,U9A C37G,0.82
2,U9A C38A,1.26
3,U9A C98U,0.28
4,U9A C103U,0.84
5,U9A C110U,1.06
6,U9A C111G,1.11
7,U9A C116U,0.95
8,U9A C120U,1.12
9,U9A C123U,1.11
10,U9A C131U,0.79
11,U9A G33U,1.6
12,U9A G36A,1.09
13,U9A G40A,1
14,U9A G54A,0.65
15,U9A G60A,0.1
16,U9A G60U,0
17,U9A G70A,0.12
18,U9A G88A,0.12
19,U9A G97A,0.12
20,U9A G125U,0.15
21,U9A G144A,1.19
22,U9A U12A,0.37
23,U9A U14C,0.89
24,U9A U14G,0

row,Variant,self-cleavage
1,U9A U15C,1.08
2,U9A U20C,0.88
3,U9A U23C,0.93
4,U9A U29A,0.79
5,U9A U29C,1.19
6,U9A U45G,1.05
7,U9A U46A,1.22
8,U9A U62C,0.09
9,U9A U73A,1.29
10,U9A U73C,0.94
11,U9A U87A,0.15
12,U9A U87C,0.19
13,U9A U91A,0.53
14,U9A U91C,0.36
15,U9A U96C,0.19
16,U9A U100A,0.72
17,U9A U104A,1.29
18,U9A U104G,0.98
19,U9A U108A,1.01
20,U9A U109A,0.14
21,U9A U115A,1.09
22,U9A U119C,1.04
23,U9A U130A,1.23
24,U9A U130C,1.07

row,Variant,self-cleavage
1,U9A U134A,1.17
2,U9C,1.22
3,U9C A22G,1.03
4,U9C A24G,1.04
5,U9C A30G,1.21
6,U9C A30U,0.87
7,U9C A31G,0.91
8,U9C A31U,1.2
9,U9C A42C,0.88
10,U9C A43U,0.77
11,U9C A50G,1
12,U9C A50U,1.38
13,U9C A57U,0.24
14,U9C A59G,0.11
15,U9C A64C,0.35
16,U9C A64U,0.6
17,U9C A65G,0.16
18,U9C A69U,0.06
19,U9C A77U,1.19
20,U9C A78C,1.5
21,U9C A78U,2.65
22,U9C A79C,1.2
23,U9C A79G,1.35
24,U9C A79U,1.66

row,Variant,self-cleavage
1,U9C A92C,0.48
2,U9C A92G,0.1
3,U9C A92U,0.28
4,U9C A117C,1.41
5,U9C A121G,1.27
6,U9C A124C,2.53
7,U9C A124G,1.15
8,U9C A129C,1.24
9,U9C A129G,1.66
10,U9C A129U,1.27
11,U9C A138U,1.92
12,U9C A140G,1.19
13,U9C A140U,1.35
14,U9C C17A,1.31
15,U9C C18U,1
16,U9C C19A,1.55
17,U9C C19U,1.65
18,U9C C51A,0.63
19,U9C C56U,0.37
20,U9C C90G,0.09
21,U9C C90U,0.09
22,U9C C95U,0.19
23,U9C C98U,0.59
24,U9C C113A,1.2

row,Variant,self-cleavage
1,U9C C113U,1.08
2,U9C C116G,1.21
3,U9C C118U,0.92
4,U9C C120U,1.3
5,U9C C131U,1.6
6,U9C G10A,0.86
7,U9C G11A,1.07
8,U9C G21U,1.37
9,U9C G25U,0.96
10,U9C G33A,1.01
11,U9C G34U,1.09
12,U9C G35U,1.13
13,U9C G36C,2.16
14,U9C G44A,0.69
15,U9C G49U,1.08
16,U9C G53A,1.2
17,U9C G54A,0.65
18,U9C G55A,0.48
19,U9C G55U,0.37
20,U9C G58A,0.04
21,U9C G60C,0.07
22,U9C G72A,1.34
23,U9C G75A,1.4
